Reference: patent US20140031528A1 (NATIONAL UNIVERSITY CORPORATION UNIVERSITY OF TOYAMA, published 2014)

Molecular target: human insulin (human, UniProt P01308 25-54; P01308 90-110)
Experiment: ELISA, recombinant antibodies from 293FT culture
Procedure: The full lengths of the guinea pig γ chain, κ chain, and λ chain gene expression units amplified in the above experiments were genetically introduced into 293FT cells and the cells were cultured for two days to bring about the secretion of recombinant guinea pig antibodies in the cell culture. The ability to bind human insulin of the recombinant guinea pig monoclonal antibodies obtained from the antigen specific and nonspecific plasma cells was examined by the ELISA method (FIG. 9).

Chain of human insulin (P01308 25-54 limits assumed, chain 1 of 2): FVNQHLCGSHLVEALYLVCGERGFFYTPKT
Chain of human insulin (P01308 90-110 limits assumed, chain 2 of 2): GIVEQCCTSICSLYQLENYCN

binding result: binds
B1: guinea pig monoclonal antibody to human insulin, Sample No. 5 (antibody, V domains shown)
VH: QVQLQESGPGLVKPSETLSLTCKVSGFSLMDYSVSWIRQAPGEGLEWIGVIWSSGSTDYNSTFKSRVGMSRDTSKSQVSITLRSLSSEDTAVYYCARAQYFDVWGAGTLVTVSS
VL: QIVLTQSPASLAASPGQKVTITCTASSSVNNNFFHWYQQKPGASPTLLIYRTSRLASGVPARFSGSGSGTSYSLTISSMEGEDVATYYCLQSNSYTFGAGTRLEIK
notes: Recombinant guinea pig IgG (γ/κ) secreted by 293FT cells
